From the supplement of paper PMC12042874
± gives the uncertainty stated by the source.

Experiment: amyloid nucleation score (Sup35N fusion, yeast selection) (log enrichment); library NNK3; higher = more nucleation; inactive = no reads after selection
Method in brief: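 Random libraries were run with three technical output replicates. In each, psi-negative yeast expressing Sup35N fused to peptides of 20 random codons were induced 24 hours with 100 μM copper sulfate and grown 7 days at 30°C on medium lacking adenine and uracil, and input and output plasmid inserts were Illumina-sequenced. The nucleation score is the DiMSum log enrichment of output over input reads, centred on the mode score of non-aggregating sequences, and sequences under 100 input reads were excluded.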

NIPPLTLLAVVGS
amyloid nucleation score: inactive

NIRKPDMYLITVCWESSQAL
amyloid nucleation score: inactive

NISMVTSEDYMRDLLIFSTG
amyloid nucleation score: inactive

NITPRQMWVRWRQCMMGTGL
amyloid nucleation score: inactive

NKHDHLFRKFFLCISLGLAG
amyloid nucleation score: inactive

NKNSVFSLSYPYYVTCVGTY
amyloid nucleation score: inactive

NKRGNVASLLSLACKYGAEQ
amyloid nucleation score: inactive

NKVCLDTSAVYYSFRDKDG
amyloid nucleation score: inactive

NKVLFYVTYLFFIRNFLV
amyloid nucleation score: inactive

NKWQRNSSNKFTCAQVPFFA
amyloid nucleation score: inactive

NKYYVRSSFELVIVYA
amyloid nucleation score: 0.142 ± 0.32

NLEGRKRLMILVFKCCELAI
amyloid nucleation score: inactive

NLEYCSILFKRH
amyloid nucleation score: 2 ± 0.095

NLFSRIVHSGLRMSTNCILI
amyloid nucleation score: inactive

NLGKTLNTLYLVFTFRDVF
amyloid nucleation score: inactive

NLGTATLHLSYYMDPLTT
amyloid nucleation score: inactive

NLMCVNTVGLKYGPRELSNH
amyloid nucleation score: inactive

NLMCW
amyloid nucleation score: 0.958 ± 0.21

NLNFDWTPVPSFSYHAPSKF
amyloid nucleation score: inactive

NLRNDIYMTSICCE
amyloid nucleation score: inactive

NLRWSLIFMFGDCWGACGCG
amyloid nucleation score: 0.476 ± 0.23

NLSLGQFIKAAVKFVHKPRK
amyloid nucleation score: 1.34 ± 0.14

NLVRFLLKFMVKEYLRFTYI
amyloid nucleation score: inactive

NLVWFHIATEVIERNVGGGN
amyloid nucleation score: inactive

NLWLECNLESSQRSSLFTKL
amyloid nucleation score: inactive

NMCYSVCVHYLLTAESKCHT
amyloid nucleation score: inactive

NMFRFLMCSSTRHYVRIMTN
amyloid nucleation score: inactive

NMIAVYLVLPRDSLGMIFTF
amyloid nucleation score: inactive

NMIEVI
amyloid nucleation score: inactive

NMILFISCEIPGRGVFGRCC
amyloid nucleation score: 1.13 ± 0.11

NMQGLRFSRKCCEHRGFYIC
amyloid nucleation score: inactive

NMVPNCDLLMKSRLKVSNSA
amyloid nucleation score: inactive

NMYSCNSGGHKQLCLKVGDL
amyloid nucleation score: inactive

NNCYRMGFLCPTNRQTMEG
amyloid nucleation score: inactive

NNIIVVKTAS
amyloid nucleation score: inactive

NNMLIGVRSVRAYKWFMHCV
amyloid nucleation score: inactive

NNPSHGTRQNTYSALGWDHT
amyloid nucleation score: inactive

NNRVLQRRPHRFHGANVTWS
amyloid nucleation score: -0.677 ± 1.4

NNSFNYGNHGRSSVFNNLRC
amyloid nucleation score: inactive

NNVTSIN
amyloid nucleation score: -0.821 ± 1.1

NNVVHEVNFLELRLRVILGY
amyloid nucleation score: inactive

NNYSPLFRTTAGYSSHFTRQ
amyloid nucleation score: inactive

NPDAYKERTDLVWSVVVLLW
amyloid nucleation score: inactive

NPFRGFLTIQCRPILRFPDK
amyloid nucleation score: inactive

NPMGWGQLTGCFHYVAMFCS
amyloid nucleation score: inactive

NPMTHYHMIHRSQGNCLLRR
amyloid nucleation score: inactive

NPRVYNMIQPAYVNWSMDVT
amyloid nucleation score: inactive

NQSGALVG
amyloid nucleation score: inactive

NQWIAICNPSPFRVLTAHI
amyloid nucleation score: inactive

NREHMAISSCRLVKHCFFWT
amyloid nucleation score: inactive

NRPSMSRGVDTRLMSLHETL
amyloid nucleation score: inactive

NRQSLGIRSYFC
amyloid nucleation score: inactive

NRYYPVGNYCARTWQTFTFL
amyloid nucleation score: inactive

NSCLV
amyloid nucleation score: inactive

NSDFLSTVGYEGLLHTQGCA
amyloid nucleation score: inactive

NSFLRVIVC
amyloid nucleation score: inactive

NSGNSIAVAAALDKDTLQAG
amyloid nucleation score: inactive

NSIIGPTHHIVK
amyloid nucleation score: inactive

NSKGMI
amyloid nucleation score: inactive

NSLCSLVLTLIWWIKCPCDV
amyloid nucleation score: inactive

NSLPCLGYGMFM
amyloid nucleation score: inactive

NSMRVKVRTLTVYISEFTVS
amyloid nucleation score: inactive

NSNSYLGTNFILNQYVLCID
amyloid nucleation score: inactive

NSSDVRQVLAIIRCGVV
amyloid nucleation score: inactive

NSSTDFS
amyloid nucleation score: inactive

NSTDRMTASS
amyloid nucleation score: inactive

NSYFLSRTLLSTSGRRTCRM
amyloid nucleation score: inactive

NSYGPRKSSGRVAPF
amyloid nucleation score: inactive

NSYQY
amyloid nucleation score: inactive

NTFVDGKSRYYSYLRIVQIL
amyloid nucleation score: inactive

NTGYVVLHKDFHSLASSTKV
amyloid nucleation score: inactive

NTHKQWVRTLRWVLVSYNCC
amyloid nucleation score: inactive

NTLDDDFRISPDATVYSVYW
amyloid nucleation score: inactive

NTMMA
amyloid nucleation score: inactive

NTNRLFNSLRTKLGFCFYSF
amyloid nucleation score: inactive

NVAAFGVAMPGMSV
amyloid nucleation score: inactive

NVALRAGSREG
amyloid nucleation score: inactive

NVEMLFNNSHHSTDEDAWYD
amyloid nucleation score: inactive

NVFFIRNNQTTGRLKFWCQV
amyloid nucleation score: 0.958 ± 0.12

NVFLRNLA
amyloid nucleation score: inactive

NVLALECVRDWT
amyloid nucleation score: inactive

NVLFLVNY
amyloid nucleation score: 2.42 ± 0.067

NVLLCINTRYR
amyloid nucleation score: 1.35 ± 0.077

NVRTLNSLDDLGVSFSSACT
amyloid nucleation score: inactive

NVSPIGQISVNYGRMDCSEG
amyloid nucleation score: inactive

NVVFV
amyloid nucleation score: inactive

NWCLVYRPVKL
amyloid nucleation score: 1.54 ± 0.1

NWENILGDSYLCVKWSL
amyloid nucleation score: inactive

NWFPGTRGRLLQVTLGYLVD
amyloid nucleation score: inactive

NWMGTGGYDMDDFFE
amyloid nucleation score: inactive

NWQYLNG
amyloid nucleation score: inactive

NWRLCFNRGRCRYMIMLQKF
amyloid nucleation score: inactive

NWSSH
amyloid nucleation score: inactive

NYDERCV
amyloid nucleation score: -0.363 ± 0.98

NYDRYCANIMYTAMCIRLLW
amyloid nucleation score: inactive

NYFQFCCGLETVNNYYRKCE
amyloid nucleation score: 1.76 ± 0.066

NYGLLQFISIWSNILVHSNV
amyloid nucleation score: inactive

NYVLRTSVVL
amyloid nucleation score: inactive

NYWYITKERGSNLVWSNGDE
amyloid nucleation score: inactive

NYYNLYCLTVLQKRLQAGMQ
amyloid nucleation score: inactive

NYYNQT
amyloid nucleation score: inactive

NYYYMYGKCSI
amyloid nucleation score: 2.28 ± 0.082

PAYLHYSIFWQNVFSNVLIM
amyloid nucleation score: 1.1 ± 0.14

PCFEFSTSVRVFSDAKGLSV
amyloid nucleation score: 0.234 ± 0.25

PCGVEMLWFKG
amyloid nucleation score: inactive

PCYCSFVSRSYYCKDYVRNS
amyloid nucleation score: inactive

PDLTKNSWYLYSYRLV
amyloid nucleation score: inactive

PEASLLVPMVSSYPLHFA
amyloid nucleation score: inactive

PEAVAAKRPSLQYPFASMTS
amyloid nucleation score: inactive

PEAVTCCNQKMTPVFIIGHP
amyloid nucleation score: inactive

PEFYA
amyloid nucleation score: inactive

PELLEHYMSHF
amyloid nucleation score: inactive

PESFKGTQCVKFFYNCLLFK
amyloid nucleation score: 1.2 ± 0.086

PESGAPNPSGYCLAHH
amyloid nucleation score: inactive

PEVCEPLLGFLCFCPVNSVP
amyloid nucleation score: inactive

PFCLPRGASCRAGCGEHIKG
amyloid nucleation score: inactive

PFFRASRLWLSLVRMRTLSV
amyloid nucleation score: inactive

PFGSSTRFIHVFYGAWGHSK
amyloid nucleation score: inactive

PFGVFHSSATTKRHFYMVGV
amyloid nucleation score: inactive

PFHSVYVDDDAWNGVCLPAV
amyloid nucleation score: inactive

PFMCGRAIRLSFREFTRLKN
amyloid nucleation score: inactive

PFSSFWVTRTLIALWYSLRT
amyloid nucleation score: inactive

PFWKLKQKWVR
amyloid nucleation score: -1.1 ± 1.9

PGEHCWRRFLT
amyloid nucleation score: inactive

PGFINFRGVTGKSLTYSILI
amyloid nucleation score: inactive

PGLLLNRMLDARFM
amyloid nucleation score: inactive

PGWLPQGMDNNSLTAVCVTI
amyloid nucleation score: inactive

PIIFNFLRIM
amyloid nucleation score: 1.7 ± 0.058

PILELGGRSFTTWRC
amyloid nucleation score: inactive

PILMISCAAGKELQLKVLWN
amyloid nucleation score: inactive

PITMLE
amyloid nucleation score: inactive

PIVRRKSPPRHYENELRGYS
amyloid nucleation score: inactive

PKFAHSEHVVNSNLFYCVEA
amyloid nucleation score: inactive

PKFFEAPQLQLFDAYSSMDF
amyloid nucleation score: inactive

PLCFLFNQFSYGA
amyloid nucleation score: inactive

PLDVNGYMNVTSGRRMCARR
amyloid nucleation score: inactive

PLESSWSK
amyloid nucleation score: inactive

PLGLAILFSSPSTFLYFNFD
amyloid nucleation score: inactive

PLIYSTLNCKRM
amyloid nucleation score: inactive

PLLLHVST
amyloid nucleation score: inactive

PLPAYCGYVLIGVHGYPFDI
amyloid nucleation score: inactive

PLPDRGSFFTVSNLNEWSAV
amyloid nucleation score: inactive

PLPLCKVM
amyloid nucleation score: -0.039 ± 0.66

PLSSSLGWVCL
amyloid nucleation score: inactive

PLTPD
amyloid nucleation score: inactive

PMGNRAWFPFLYEDQKPRIS
amyloid nucleation score: inactive

PMMVWFSNFLYVASMGPDSF
amyloid nucleation score: inactive

PMSVRRTVFCPSTSM
amyloid nucleation score: inactive

PMVKPSNLCYSSHCSMGTRG
amyloid nucleation score: inactive

PMYPGIVGSRAIMQRLVGCC
amyloid nucleation score: inactive

PNICGLGYYRLWSMLGITCW
amyloid nucleation score: inactive

PNISGGDAIEGLFFFRVGRE
amyloid nucleation score: 1.04 ± 0.14

PNRWLSRLALRIFLGHCEPV
amyloid nucleation score: inactive

PNSLRRCVSRLVPRGLPRKR
amyloid nucleation score: inactive

PPSISSPFALRVFTFVLRY
amyloid nucleation score: inactive

PQMQAISSHVCLWG
amyloid nucleation score: inactive

PRCVC
amyloid nucleation score: inactive

PRDYMINNLLVFQSRG
amyloid nucleation score: inactive
